This note sets out measurements from patent US20030040461.

Where a chain is given by its changes, count along the chain named. Names may count otherwise.

This data set relates to T1, purified recombinant SLP-76.
T1 sequence (Q13094 1-533, species assumed, looked up): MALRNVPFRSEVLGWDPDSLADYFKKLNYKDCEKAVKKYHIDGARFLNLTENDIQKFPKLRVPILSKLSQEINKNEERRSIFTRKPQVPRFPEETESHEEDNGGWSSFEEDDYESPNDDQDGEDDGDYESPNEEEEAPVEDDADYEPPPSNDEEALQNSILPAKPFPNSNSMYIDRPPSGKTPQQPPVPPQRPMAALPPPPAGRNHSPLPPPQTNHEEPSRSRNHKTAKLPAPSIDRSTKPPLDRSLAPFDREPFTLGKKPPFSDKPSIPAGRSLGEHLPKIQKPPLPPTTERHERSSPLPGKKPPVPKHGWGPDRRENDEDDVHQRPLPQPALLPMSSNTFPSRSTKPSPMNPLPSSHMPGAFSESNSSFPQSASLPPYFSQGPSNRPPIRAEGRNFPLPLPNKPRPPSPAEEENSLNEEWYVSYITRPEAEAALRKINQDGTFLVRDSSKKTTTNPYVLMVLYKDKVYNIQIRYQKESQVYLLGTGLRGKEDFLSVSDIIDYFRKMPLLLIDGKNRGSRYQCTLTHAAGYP

B1: FLAG-BTK wild-type (murine BTK with N-terminal 3XFLAG tag) (enzyme)
chain: MAAVILESIFLKRSQQKKKTSPLNFKKRLFLLTVHKLSYYEYDFERGRRGSKKGSIDVEKITCVETVIPEKNPPPERQIPRRGEESSEMEQISIIERFPYPFQVVYDEGPLYVFSPTEELRKRWIHQLKNVIRYNSDLVQKYHPCFWIDGQYLCCSQTAKNAMGCQILENRNGSLKPGSSHRKTKKPLPPTPEEDQILKKPLPPEPTAAPISTTELKKVVALYDYMPMNANDLQLRKGEEYFILEESNLPWWRARDKNGQEGYIPSNYITEAEDSIEMYEWYSKHMTRSQAEQLLKQEGKEGGFIVRDSSKAGKYTVSVFAKSTGEPQGVIRHYVVCSTPQSQYYLAEKHLFSTIPELINYHQHNSAGLISRLKYPVSKQNKNAPSTAGLGYGSWEIDPKDLTFLKELGTGQFGVVKYGKWRGQYDVAIKMIREGSMSEDEFIEEAKVMMNLSHEKLVQLYGVCTKQRPIFIITEYMANGCLLNYLREMRHRFQTQQLLEMCKDVCEAMEYLESKQFLHRDLAARNCLVNDQGVVKVSDFGLSRYVLDDEYTSSVGSKFPVRWSPPEVLMYSKFSSKSDIWAFGVLMWEIYSLGKMPYERFTNSETAEHIAQGLRLYRPHLASERVYTIMYSCWHEKADERPSFKILLSNILDVMDEES
modifications: N-terminal 3xFLAG tag
With B1, the “phosphorylation of SLP 76 (incorporation of phosphotyrosine into the substrate, IP kinase assay)” value (“phosphorylation” below) was “addition of immunoprecipitated wild-type BTK resulted in phosphorylation of both BTK itself and the SLP 76 target”.

B2: FLAG-BTK R28C (xid mutant of murine BTK with N-terminal 3XFLAG tag) (enzyme)
chain: B1 chain with R28C
modifications: N-terminal 3xFLAG tag
For B2, the kinase activity entry was “the kinase activity of BTK isolated from the xid mutant stable cell pool was significantly higher (approximately 10 fold)” and the “phosphorylation” value is listed as “Addition of BTK immunoprecipitated from the xid construct cell lysate resulted in hyperphosphorylation of the SLP 76 target”.

B3: FLAG-BTK E41K (gain of function mutant of murine BTK with N-terminal 3XFLAG tag) (enzyme)
chain: B1 chain with E41K
modifications: N-terminal 3xFLAG tag
With B3, the “phosphorylation” value was “Phosphorylation using extracts from the “gain of function” and dominant negative mutant cell contracts appeared to be reduced compared to the wild-type BTK”.

B4: FLAG-BTK K430R (dominant negative mutant of murine BTK with N-terminal 3XFLAG tag) (enzyme)
chain: B1 chain with K430R
modifications: N-terminal 3xFLAG tag
On to B4, for which the “phosphorylation” value was “Phosphorylation using extracts from the “gain of function” and dominant negative mutant cell contracts appeared to be reduced compared to the wild-type BTK”.
